Three compounds from US9555139B2, “Binding ligand linked drug delivery conjugates of tubulysins” (Endocyte, Inc., priority 2007, dated 2017) can be followed below.

Data set [1] can be described thus: Serum binding, human serum. Format: in vitro ADME. How it is done: (§1) METHOD: Serum binding against different species. Compounds are tested with 30K NMWL, subjected to Microcon filtration (10,000 g for 30 minutes), and compounds are detected by HPLC.
Data set [2] in a line: Serum binding against different species. Type of data set: in vitro ADME. As to conditions: human, dog, Balb/c mouse, rat, rabbit, fetal calf serum. How it is done:
as §1

A short description of the next data set: Human serum stability. Format: in vitro ADME. The source says:
METHOD: Human serum stability.

Data set [3] can be described thus: Toxicity as measured by weight loss / organ evaluation in tumor-bearing mice. Type of data set: in vivo. The protocol:
METHOD: Drug Toxicity determinations. Persistent drug toxicity was assessed by collecting blood via cardiac puncture and submitting the serum for independent analysis of blood urea nitrogen (BUN), creatinine, total protein, AST-SGOT, ALT-SGPT plus a standard hematological cell panel at Ani-Lytics, Inc. (Gaithersburg, Md.). In addition, histopathologic evaluation of formalin-fixed heart, lungs, liver, spleen, kidney, intestine, skeletal muscle and bone (tibia/fibula) were conducted by board-certified pathologists at Animal Reference Pathology Laboratories (ARUP; Salt Lake City, Utah).
METHOD: Toxicity as Measured by Weight Loss.

Data set [4] is described as follows: Body weight change of Balb/c mice at doses above therapeutic doses (FIG. 14). As to conditions: intravenous, three times in one week (FIG. 14). The protocol:
METHOD: Toxicity as Measured by Weight Loss. The percentage weight change of the mice was determined in mice (5 mice/group) on selected days post-tumor inoculation (PTI), and graphed.
Each dose was administered three times, every other day, as indicated by the arrows. EC0305 was administered at (Δ) 2 μmol/kg TIW; (∇) 2.5 μmol/kg TIW; and (□) 3 μmol/kg.

In the next data set the target is T1, folate receptors (FRs) (Homo sapiens, UniProt P15328).
T1 construct: FR-positive KB cells were heavily seeded into 24-well cell culture plates; endogenous in cells; host or cells: KB cells
T1 sequence (P15328 25-234): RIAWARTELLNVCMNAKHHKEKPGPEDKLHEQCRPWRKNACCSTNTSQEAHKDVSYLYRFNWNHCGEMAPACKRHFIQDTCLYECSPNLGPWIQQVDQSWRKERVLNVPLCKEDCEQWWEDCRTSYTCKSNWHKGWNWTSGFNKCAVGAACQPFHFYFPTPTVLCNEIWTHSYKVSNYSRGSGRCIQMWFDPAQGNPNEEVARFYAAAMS
The experiment in a line: Relative affinity assay (3H-folic acid displacement on KB cells). As to conditions: 10% serum/FDRPMI; folic acid set to 1. Type of data set: binding. How it is done:
METHOD: Relative Affinity Assay. The affinity for folate receptors (FRs) relative to folate was determined according to a previously described method (Westerhof, G. R., J. H. Schornagel, et al. (1995) Mol. Pharm. 48: 459-471) with slight modification. Briefly, FR-positive KB cells were heavily seeded into 24-well cell culture plates and allowed to adhere to the plastic for 18 h. Spent incubation media was replaced in designated wells with folate-free RPMI (FFRPMI) supplemented with 100 nM ^3H-folic acid in the absence and presence of increasing concentrations of test article or folic acid. Cells were incubated for 60 min at 37° C. and then rinsed 3 times with PBS, pH 7.4. Five hundred microliters of 1% SDS in PBS, pH 7.4, were added per well. Cell lysates were then collected and added to individual vials containing 5 mL of scintillation cocktail, and then counted for radioactivity. Negative control tubes contained only the ^3H-folic acid in FFRPMI (no competitor). Positive control tubes contained a final concentration of 1 mM folic acid, and CPMs measured in these samples (representing non-specific binding of label) were subtracted from all samples.

A further data set relates to s.c. tumors. The experiment in a line: Inhibition of tumor growth in mice (tumor model not stated, FIG. 9 and 11). Type of data set: in vivo. As to conditions: tolerable and highly toxic dose levels (0.1, 0.2, 0.5 μmol/kg TIW), dosing terminated early. The protocol: METHOD: Inhibition of Tumor Growth in Mice. Four to seven week-old mice (Balb/c or nu/nu strains) were purchased from Harlan Sprague Dawley, Inc. (Indianapolis, Ind.). Normal rodent chow contains a high concentration of folic acid (6 mg/kg chow); accordingly, mice used were maintained on the folate-free diet (Harlan diet #TD00434) for 1 week before tumor implantation to achieve serum folate concentrations close to the range of normal human serum. For tumor cell inoculation, 1×10^6 M109 cells (Balb/c strain) or 1×10^6 KB cells (nu/nu strain) in 100 μL were injected in the subcutis of the dorsal medial area. Tumors were measured in two perpendicular directions every 2-3 days using a caliper, and their volumes were calculated as 0.5×L×W^2, where L=measurement of longest axis in mm and W=measurement of axis perpendicular to L in mm. […] Dosing solutions were prepared fresh each day in PBS and administered through the lateral tail vein of the mice.

Where only a bound is given, the exact number is not on record here.

Regarding `CCCC(=O)OCN(C(=O)[C@@H](NC(=O)[C@H]1CCCCN1C)C(C)CC)[C@H](C[C@@H](OC(C)=O)c1nc(C(=O)N[C@@H](Cc2ccc(O)cc2)C[C@H](C)C(=O)NNC(=O)OCCSSC[C@H](NC(=O)[C@H](CC(=O)O)NC(=O)[C@H](CCCNC(=N)N)NC(=O)[C@H](CC(=O)O)NC(=O)CC[C@H](NC(=O)c2ccc(NCc3cnc4nc(N)[nH]c(=O)c4n3)cc2)C(=O)O)C(=O)O)cs1)C(C)C` (stereo partly drawn) [EC0305], in data set [1], the fraction unbound – broadly, the share of the substance not bound to proteins or other matrix – is 0.33 and the serum binding is on record as 67%. Besides, in data set [2], the “serum binding in various species” value is recorded as “low serum binding”. Also, the half-life (as a rule, the time needed for the level to fall by half in the phase considered) in the data set “Human serum stability” was around 1200 min. Further, the “weight loss or major organ tissue degeneration” value in data set [3] (Balb/c mice with M109 tumors (FIG. 8)) is given as “apparent absence of weight loss or major organ tissue degeneration”. In addition, the “gross toxicity as determined by changes in weight” value in data set [3] (M109 tumor mice (FIG. 13), 2 μmol/kg TIW, 2 wks) is “not accompanied by any observed gross toxicity”. Also, the “weight loss or major organ tissue degeneration” value in data set [3] (nu/nu mice with KB tumors (FIG. 6)) was “apparent absence of weight loss or major organ tissue degeneration”. Besides, the “dose at which toxicity begins, as determined by changes in weight” value in data set [4] is at least 2.5 µmol/kg.

Consider `Nc1nc2ncc(CNc3ccc(C(=O)N[C@@H](CCC(=O)O)C(=O)O)cc3)nc2c(=O)[nH]1` [folic acid], for which the relative affinity at folate receptors (FRs) turned out to be 1.

On to `CCCC(=O)OCN(C(=O)[C@@H](NC(=O)[C@H]1CCCCN1C)C(C)CC)[C@H](C[C@@H](OC(C)=O)c1nc(C(=O)N[C@@H](Cc2ccc(O)cc2)C[C@H](C)C(=O)O)cs1)C(C)C` (stereo partly drawn) [tubulysin B, reference compound], for which the “complete or partial responses” value in the data set with s.c. tumors is listed as 0/5. In addition, the “toxicity (dosing terminated early in each cohort)” value in data set [3] (FIG. 9 and 10, 0.1, 0.2, 0.5 μmol/kg TIW) is on record as “excessive toxicity”. The “change in percent body weight” value in data set [3] (FIG. 10, 0.1, 0.2, 0.5 μmol/kg TIW, compared to controls) is “dramatic change”.
